In US6855515:

B1: caspase-8 (protein)
chain 1: SESQTLDKVYQMKSKPRGYCLIINNHNFAKAREKVPKLHSIRDRNGTHLDAGALTTTFEELHFEIKPHDDCTVEQIYEILKIYQLMDHSNMDCFICCILSHGDKGIIYGTDGQEAPIYELTSQFTGLKCPSLAGKPKVFFIQACQGDNYQKGIPVETD
chain 2: LSSPQTRYIPDEADFLLGMATVNNCVSYRNPAEGTWYIQSLCQSLRERCPRGDDILTILTEVNYEVSNKDDKKNMGKQMPQPTFTLRKKLVFPSD
B2: caspase-3 (protein)
chain: SGISLDNSYKMDYPEMGLCIIINNKNFHKSTGMTSRSGTDVDAANLRETFRNLKYEVRNKNDLTREEIVELMRDVSKEDHSKRSSFVCVLLSHGEEGIIFGTNGPVDLKKITNFFRGDRCRSLTGKPKLFIIQACRGTELDCGIETDSGVDDDMACHKIPVEADFLYAYSTAPGYYSWRNSKDGSWFIQSLCAMLKQYADKLEFMHILTRVNRKVATEFESFSFDATFHAKKQIPCIVSMLTKELYFYH

How the values were obtained:
[1] = target: Ki-67, P46013
[2] = target: Ku-70, P12956
Chain of Ku-70, P12956 (P12956 2-609): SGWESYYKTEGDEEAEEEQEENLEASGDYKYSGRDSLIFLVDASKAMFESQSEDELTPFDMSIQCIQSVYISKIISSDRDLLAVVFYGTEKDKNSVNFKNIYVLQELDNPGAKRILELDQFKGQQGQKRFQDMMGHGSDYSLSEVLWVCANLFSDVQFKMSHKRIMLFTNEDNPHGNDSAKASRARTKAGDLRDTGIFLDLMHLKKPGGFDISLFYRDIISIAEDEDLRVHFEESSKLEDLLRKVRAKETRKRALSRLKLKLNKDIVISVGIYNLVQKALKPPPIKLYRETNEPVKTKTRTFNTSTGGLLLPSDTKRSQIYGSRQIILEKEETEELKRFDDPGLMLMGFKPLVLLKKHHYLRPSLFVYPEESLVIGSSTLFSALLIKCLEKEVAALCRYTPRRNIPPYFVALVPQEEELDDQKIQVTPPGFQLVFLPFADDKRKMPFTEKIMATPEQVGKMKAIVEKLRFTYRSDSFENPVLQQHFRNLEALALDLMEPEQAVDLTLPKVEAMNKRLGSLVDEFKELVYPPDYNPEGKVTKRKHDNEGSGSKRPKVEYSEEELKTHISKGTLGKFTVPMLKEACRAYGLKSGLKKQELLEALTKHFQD

[3] = target: Mi-2
[4] = target: T1, PMS1, P54277
T1 chain: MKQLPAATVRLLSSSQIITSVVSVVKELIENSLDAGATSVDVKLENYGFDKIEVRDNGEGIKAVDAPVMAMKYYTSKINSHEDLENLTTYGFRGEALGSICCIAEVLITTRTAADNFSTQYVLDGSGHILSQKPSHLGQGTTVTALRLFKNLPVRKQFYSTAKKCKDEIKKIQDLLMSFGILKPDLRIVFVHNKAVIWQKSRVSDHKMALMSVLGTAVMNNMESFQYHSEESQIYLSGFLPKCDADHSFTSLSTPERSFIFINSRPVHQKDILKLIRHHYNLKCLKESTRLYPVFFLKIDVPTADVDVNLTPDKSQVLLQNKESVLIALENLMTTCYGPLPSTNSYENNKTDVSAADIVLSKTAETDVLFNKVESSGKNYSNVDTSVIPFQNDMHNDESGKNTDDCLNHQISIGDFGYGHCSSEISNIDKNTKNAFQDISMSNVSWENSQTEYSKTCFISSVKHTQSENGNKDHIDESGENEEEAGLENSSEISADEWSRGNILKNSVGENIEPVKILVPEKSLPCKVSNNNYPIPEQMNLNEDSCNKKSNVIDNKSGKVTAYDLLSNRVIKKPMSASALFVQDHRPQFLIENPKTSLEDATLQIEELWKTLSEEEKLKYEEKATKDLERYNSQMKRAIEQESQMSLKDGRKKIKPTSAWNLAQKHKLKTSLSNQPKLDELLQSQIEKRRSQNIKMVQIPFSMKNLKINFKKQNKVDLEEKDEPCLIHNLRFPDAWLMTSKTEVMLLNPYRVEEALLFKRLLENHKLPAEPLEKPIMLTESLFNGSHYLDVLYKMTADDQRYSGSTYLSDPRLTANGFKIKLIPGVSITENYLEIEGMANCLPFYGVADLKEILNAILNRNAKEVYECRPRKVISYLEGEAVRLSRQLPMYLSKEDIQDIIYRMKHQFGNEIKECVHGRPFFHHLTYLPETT

[5] = target: T2, PMS2, P54278
T2 chain: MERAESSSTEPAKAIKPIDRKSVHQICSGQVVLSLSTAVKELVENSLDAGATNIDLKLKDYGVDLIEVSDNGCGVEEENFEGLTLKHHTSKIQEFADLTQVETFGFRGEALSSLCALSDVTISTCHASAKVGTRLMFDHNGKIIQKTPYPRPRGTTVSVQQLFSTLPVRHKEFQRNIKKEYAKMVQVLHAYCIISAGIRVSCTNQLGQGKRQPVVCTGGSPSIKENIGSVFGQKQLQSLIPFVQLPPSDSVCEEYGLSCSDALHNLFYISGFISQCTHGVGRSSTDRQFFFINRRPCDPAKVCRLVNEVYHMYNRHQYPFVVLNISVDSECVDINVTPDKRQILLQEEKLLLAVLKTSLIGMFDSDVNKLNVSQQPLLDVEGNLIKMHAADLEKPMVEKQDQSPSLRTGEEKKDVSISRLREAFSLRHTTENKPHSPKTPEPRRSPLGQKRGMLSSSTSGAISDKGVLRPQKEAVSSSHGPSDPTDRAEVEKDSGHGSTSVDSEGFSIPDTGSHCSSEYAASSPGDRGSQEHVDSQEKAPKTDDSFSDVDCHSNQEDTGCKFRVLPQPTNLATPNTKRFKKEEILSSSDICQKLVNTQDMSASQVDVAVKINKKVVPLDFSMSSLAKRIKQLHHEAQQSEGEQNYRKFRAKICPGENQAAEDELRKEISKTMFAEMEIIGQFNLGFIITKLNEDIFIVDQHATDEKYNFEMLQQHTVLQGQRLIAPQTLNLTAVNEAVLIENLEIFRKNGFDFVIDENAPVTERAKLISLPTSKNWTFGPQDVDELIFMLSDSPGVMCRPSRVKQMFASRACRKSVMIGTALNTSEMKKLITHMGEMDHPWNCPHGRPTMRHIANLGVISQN

[6] = target: RNA polymerase II large subunit, P24928
[7] = target: T3, SRP-72, O76094
T3 chain: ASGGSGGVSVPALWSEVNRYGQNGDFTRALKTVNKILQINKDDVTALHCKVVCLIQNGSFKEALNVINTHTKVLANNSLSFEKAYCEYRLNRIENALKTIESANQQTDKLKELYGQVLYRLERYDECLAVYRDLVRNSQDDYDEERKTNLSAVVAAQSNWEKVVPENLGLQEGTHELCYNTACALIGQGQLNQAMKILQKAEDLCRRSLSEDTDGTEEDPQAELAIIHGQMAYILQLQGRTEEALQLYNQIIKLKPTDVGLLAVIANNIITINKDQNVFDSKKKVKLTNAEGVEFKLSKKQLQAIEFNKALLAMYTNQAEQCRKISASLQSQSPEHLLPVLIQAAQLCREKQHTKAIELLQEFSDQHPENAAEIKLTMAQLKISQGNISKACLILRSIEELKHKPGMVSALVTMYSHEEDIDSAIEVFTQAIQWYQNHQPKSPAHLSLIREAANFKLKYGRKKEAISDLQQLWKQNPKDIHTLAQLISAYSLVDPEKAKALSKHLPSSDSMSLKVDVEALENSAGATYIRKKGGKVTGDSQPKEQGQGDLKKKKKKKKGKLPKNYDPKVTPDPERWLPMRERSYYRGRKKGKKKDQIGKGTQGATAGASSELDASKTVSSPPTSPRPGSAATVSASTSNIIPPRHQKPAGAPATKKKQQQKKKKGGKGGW

[8] = target: T4, Topoisomerase I, P11387
T4 chain: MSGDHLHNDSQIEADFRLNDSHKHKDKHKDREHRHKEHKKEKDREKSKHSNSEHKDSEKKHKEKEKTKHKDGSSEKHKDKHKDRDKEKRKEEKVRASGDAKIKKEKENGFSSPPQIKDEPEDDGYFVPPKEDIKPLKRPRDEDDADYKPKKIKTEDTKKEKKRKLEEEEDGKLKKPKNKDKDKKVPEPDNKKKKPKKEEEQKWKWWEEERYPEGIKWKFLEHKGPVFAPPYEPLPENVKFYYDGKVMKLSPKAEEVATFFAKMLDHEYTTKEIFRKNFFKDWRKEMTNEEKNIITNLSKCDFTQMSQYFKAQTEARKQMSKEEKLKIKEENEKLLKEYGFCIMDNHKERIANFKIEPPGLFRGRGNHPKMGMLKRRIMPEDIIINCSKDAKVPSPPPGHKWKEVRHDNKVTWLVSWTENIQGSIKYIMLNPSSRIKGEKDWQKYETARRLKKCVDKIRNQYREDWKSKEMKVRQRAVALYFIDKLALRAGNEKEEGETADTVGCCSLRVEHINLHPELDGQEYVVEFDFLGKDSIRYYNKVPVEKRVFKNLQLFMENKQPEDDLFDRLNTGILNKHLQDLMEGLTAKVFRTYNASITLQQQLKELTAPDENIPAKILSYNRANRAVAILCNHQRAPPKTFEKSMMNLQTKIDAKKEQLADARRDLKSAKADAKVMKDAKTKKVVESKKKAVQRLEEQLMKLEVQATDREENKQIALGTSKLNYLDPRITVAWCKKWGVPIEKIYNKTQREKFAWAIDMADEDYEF

[9] = target: U1-70 kDa, P08621
Chain of U1-70 kDa, P08621 (P08621 whole entry): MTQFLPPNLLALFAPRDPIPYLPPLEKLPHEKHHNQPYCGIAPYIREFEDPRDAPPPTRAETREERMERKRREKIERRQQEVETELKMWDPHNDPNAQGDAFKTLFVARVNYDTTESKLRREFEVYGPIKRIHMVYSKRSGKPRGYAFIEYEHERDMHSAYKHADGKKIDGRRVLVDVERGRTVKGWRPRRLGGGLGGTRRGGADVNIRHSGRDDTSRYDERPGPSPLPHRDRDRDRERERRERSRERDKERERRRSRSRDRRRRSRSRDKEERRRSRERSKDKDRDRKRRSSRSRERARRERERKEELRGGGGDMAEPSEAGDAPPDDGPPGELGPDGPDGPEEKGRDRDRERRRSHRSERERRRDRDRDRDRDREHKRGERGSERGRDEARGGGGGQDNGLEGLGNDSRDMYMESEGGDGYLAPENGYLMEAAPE

[10] = target: nuclear mitotic apparatus protein
Chain of nuclear mitotic apparatus protein (chain, as listed by the source): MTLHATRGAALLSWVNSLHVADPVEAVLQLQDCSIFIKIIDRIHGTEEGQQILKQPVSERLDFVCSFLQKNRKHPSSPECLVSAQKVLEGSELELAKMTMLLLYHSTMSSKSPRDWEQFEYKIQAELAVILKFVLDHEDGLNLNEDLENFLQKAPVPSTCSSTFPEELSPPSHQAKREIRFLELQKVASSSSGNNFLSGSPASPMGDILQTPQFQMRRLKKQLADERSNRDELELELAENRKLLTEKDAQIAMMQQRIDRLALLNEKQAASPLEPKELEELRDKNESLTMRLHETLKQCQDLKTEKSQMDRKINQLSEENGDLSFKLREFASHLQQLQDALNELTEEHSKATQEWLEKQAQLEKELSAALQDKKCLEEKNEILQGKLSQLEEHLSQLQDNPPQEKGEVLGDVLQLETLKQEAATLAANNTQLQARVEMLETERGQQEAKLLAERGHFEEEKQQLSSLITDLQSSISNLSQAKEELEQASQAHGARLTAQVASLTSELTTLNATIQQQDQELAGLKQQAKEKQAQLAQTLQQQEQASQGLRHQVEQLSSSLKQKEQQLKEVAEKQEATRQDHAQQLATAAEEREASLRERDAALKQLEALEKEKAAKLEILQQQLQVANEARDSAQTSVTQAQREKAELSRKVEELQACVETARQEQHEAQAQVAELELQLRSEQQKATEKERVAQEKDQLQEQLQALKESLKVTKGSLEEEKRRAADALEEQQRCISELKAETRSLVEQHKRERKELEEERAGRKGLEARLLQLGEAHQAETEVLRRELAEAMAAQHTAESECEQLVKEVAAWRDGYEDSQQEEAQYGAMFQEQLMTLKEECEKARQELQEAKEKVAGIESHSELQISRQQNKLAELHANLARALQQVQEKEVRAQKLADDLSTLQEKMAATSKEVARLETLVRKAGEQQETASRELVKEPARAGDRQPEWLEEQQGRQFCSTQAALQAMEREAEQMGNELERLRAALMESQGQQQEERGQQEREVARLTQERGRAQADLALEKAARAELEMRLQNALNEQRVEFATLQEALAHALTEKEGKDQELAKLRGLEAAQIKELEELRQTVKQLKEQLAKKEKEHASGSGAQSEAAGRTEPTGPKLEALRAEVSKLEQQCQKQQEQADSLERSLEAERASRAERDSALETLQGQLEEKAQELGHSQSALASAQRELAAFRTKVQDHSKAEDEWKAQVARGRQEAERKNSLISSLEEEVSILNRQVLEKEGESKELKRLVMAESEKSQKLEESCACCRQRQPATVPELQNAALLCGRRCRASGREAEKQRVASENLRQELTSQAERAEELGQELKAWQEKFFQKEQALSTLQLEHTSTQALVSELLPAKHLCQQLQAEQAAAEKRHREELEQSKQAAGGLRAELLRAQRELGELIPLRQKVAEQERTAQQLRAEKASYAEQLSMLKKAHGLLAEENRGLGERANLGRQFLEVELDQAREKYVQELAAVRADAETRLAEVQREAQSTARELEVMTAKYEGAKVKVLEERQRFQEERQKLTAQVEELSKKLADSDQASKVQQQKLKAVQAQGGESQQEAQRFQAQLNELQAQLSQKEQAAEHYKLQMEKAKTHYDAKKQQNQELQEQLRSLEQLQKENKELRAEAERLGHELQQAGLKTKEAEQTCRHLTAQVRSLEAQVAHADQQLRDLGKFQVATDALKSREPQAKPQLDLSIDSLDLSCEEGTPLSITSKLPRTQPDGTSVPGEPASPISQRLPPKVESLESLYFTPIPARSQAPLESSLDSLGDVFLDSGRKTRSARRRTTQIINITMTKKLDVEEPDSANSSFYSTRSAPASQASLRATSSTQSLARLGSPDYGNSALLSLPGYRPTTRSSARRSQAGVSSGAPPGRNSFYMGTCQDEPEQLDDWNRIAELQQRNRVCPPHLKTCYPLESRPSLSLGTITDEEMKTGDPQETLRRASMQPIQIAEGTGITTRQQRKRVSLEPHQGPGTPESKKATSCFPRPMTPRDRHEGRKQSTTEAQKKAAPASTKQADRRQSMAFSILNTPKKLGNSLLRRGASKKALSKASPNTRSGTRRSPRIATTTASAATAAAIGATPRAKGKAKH

[11] = target: poly(ADP-ribose) polymerase
[12] = target: T5, Ac-DEVD-CHO, N-(N-Ac-Asp-Glu-Val)-3-amino-4-oxobutanoic acid
T5 chain: DEVD

Protein	cleavage in iodoacetamide-treated HeLa lysate with 50 nM caspase-8 [1]	cleavage in iodoacetamide-treated HeLa lysate with 50 nM caspase-8 [2]	cleavage in iodoacetamide-treated HeLa lysate with 50 nM caspase-8 [3]	cleavage of radiolabelled IvTT protein [4]	cleavage of radiolabelled IvTT protein [5]	cleavage in iodoacetamide-treated HeLa lysate with 50 nM caspase-8 [6]	cleavage in iodoacetamide-treated HeLa lysate with 50 nM caspase-8 [7]	cleavage in iodoacetamide-treated HeLa lysate with 50 nM caspase-8 [8]	cleavage in iodoacetamide-treated HeLa lysate with 50 nM caspase-8 [9]	cleavage in iodoacetamide-treated HeLa lysate with 50 nM caspase-8 [10]	cleavage in iodoacetamide-treated HeLa lysate with 50 nM caspase-8 [11]	generation of caspase-3 substrate fragments in HeLa lysate, immunoblotting [12]	kcat/Km [10] [M⁻¹ s⁻¹]	kcat/Km [11] [M⁻¹ s⁻¹]
B1	No cleavage	No cleavage	No cleavage	also not cleaved by purified caspase-8	also not cleaved by purified caspase-8	No cleavage	No cleavage	No cleavage	No cleavage	No cleavage	No cleavage			
B2												entirely abolished by 100 nM Ac-DEVD-CHO	500000	5e+06
